Patent publication US11160869B2 (priority 2019, dated 2021)

Assays:
[1] = test system: colonic tissue; experiment: Pan-colonic administration in NHP: colonic biopsies (IL-10, IL-1Ra, pSTAT3/STAT3, cytokines, gene expression); format: in vivo, cynomolgus monkeys
Description: IL-10 delivery construct solution (at concentrations of 0.1, 0.3 and 1.0 mg/mL for the low, mid and high-dose groups respectively) was administered via the rectal route using sigmoidoscopy and a syringe connected to a spray nozzle with a 360° spray pattern. Serial biopsy samples were collected by sigmoidoscopy (pre-dose, 0.25, 0.5, 0.75, 8 and 24-28 hours post dose). Serial plasma samples from 0 min pre-dose to between 24-28 hours post-dose were collected for analysis for the IL-10 delivery construct.
Phosphorylation of STAT3 is an early downstream event following IL-10 receptor activation.
Colonic biopsies at each tissue timepoint were analyzed for local concentration of IL-10 delivery construct, total IL-10, IL-1Ra, soluble cytokines, activation of STAT3 and gene expression following administration of the IL-10 delivery construct. […] In addition, STC1, MTNR1A and VNN2 encode proteins that suppress the NFkβ signaling pathway, a pathway through which key pro-inflammatory cytokines are regulated. […] This is consistent with the ability of IL-10 to suppress these cells' activation or differentiation towards a pro-inflammatory immune phenotype.

[2] = test system: IFNγ, IL-1β, IL-2, IL-6, IL-8, TNFα; experiment: Single oral capsule dose in NHP: plasma proinflammatory cytokines; format: in vivo, Macaca fascicularis
Description: The panel of cytokines (IFNγ, IL-1β, IL-2, IL-6, and IL-8) was evaluated using a multiplex kit available from MSD. The assays in this panel were sandwich immunoassays. The MSD plate came precoated with capture antibodies on independent and pre-defined spots, and samples were quantitated against an 8-point standard curve prepared using a mixture of the cytokines (Proinflammatory Panel 1 (human) Calibrator Blend) from MSD. The standards included 0 pg/mL and these concentration ranges: IFNγ (0.37-1500 pg/mL), IL-1β ([…]), IL-2 (0.36-1490 pg/mL), IL-6 (0.18-721 pg/mL) and IL-8 (0.14-553 pg/mL).
The MSD plate (pre-coated with capture antibodies) was washed 3 times with PBST before use. […] Following a wash step, 2×MSD Read buffer was added to the wells of the plate, and the plate read using the MSD Sector Imager 600 plate reader. […]
The purpose of the TNFα immunoassay was to quantify NHP TNFα concentration in plasma. […] Samples were quantitated using an 8-point standard curve prepared from a human TNFα calibrator that ranges in concentration from 5.6-4052 pg/mL and includes 0 pg/mL.
The biotinylated anti-NHP TNFα capture antibody was added to a MSD Small Spot Streptavidin plate and incubated for an hour at RT with shaking. […] Following a wash step, 2×MSD Read buffer was added to the wells of the plate, and the plate read using the MSD Sector Imager 600 plate reader. […]

[3] = Phase 1a single ascending dose in healthy male volunteers; format: in vivo, human
Description: In part B of the study, early data was gathered on the safety and tolerability, pharmacokinetics, pharmacodynamics and early clinical response following multiple ascending doses of the IL-10 delivery construct in Ulcerative Colitis (UC) patients (Part B).
Part A consisted of a single-ascending dose (SAD) escalation in healthy male volunteers. Six cohorts consisting of orally administered single ascending doses were conducted. At each dose level, 6 subjects were enrolled, randomized 2:4 to receive a single dose of placebo or the IL-10 delivery construct on day 1. The doses selected were 1 mg, 3 mg, 10 mg, 30 mg, 60 mg, and 120 mg.

[4] = test system: plasma cytokines; experiment: MSD V-plex Proinflammatory Panel 1 plasma cytokines, oxazolone colitis (Example 14); format: in vivo, mice; settings: 8.45 mg/kg
Excerpt: (§1) Plasma cytokines were quantified using the V-plex Proinflammatory Panel 1 Mouse Kit. Plasma IL-1Ra was quantitated by sandwich immunoassay using an antibody pair from the Mouse IL-1Ra/IL-1F3 DuoSet ELISA (R&D Systems #DY480), Streptavidin SULFO-TAG Labeled (MSD #R32AD-1), Multi-Array 96 Plate Pack, SECTOR Plate MSD #L15XA-3 and Read Buffer T (4×) (MSD #R92TC-2). Samples were read on the QuickPlex SQ 120 plate reader (Meso Scale Discovery, Rockville, Md.).

[5] = Purification with and without sulfitolysis: SEC-HPLC forms, yield and dimer recovery after Capto Q; settings: for Dimer Purity after Capto Q Chromatography: Capto Q load 1680 mg; for Dimer Purity: after Capto Q chromatography
Description: Refolding in both processes was carried out at 4° C. The refolding solution used in both processes contained 1 mM reduced glutathione, 0.5 mM oxidized glutathione, 1M Arginine-HCl, 250 mM sucrose, 100 mM Tris pH 8.5 at 4° C., and 2 mM EDTA.

[6] = test system: plasma cytokines, IL-1Ra; experiment: MSD 10-plex proinflammatory panel and plasma IL-1Ra immunoassay, oxazolone dose-response; parameters: species or system mice; settings: mouse, in vivo
Excerpt: as §1

[7] = 37 C, 5 h, 0.3 mg/mL
[8] = No Sulfitolysis of SIB (2x UF/DF at 4° C.), SEC-HPLC before AEX
[9] = No Sulfitolysis of SIB (2x UF/DF for 66 h RT), SEC-HPLC before AEX
[10] = No Sulfitolysis of SIB (97 mL Capto Q)
[11] = Sulfitolysis of SIB (97 mL Capto Q)
[12] = Sulfitolysis of SIB (TFF-2 for 20 h at RT), SEC-HPLC after UF/DF, before AEX

B1: IL-10 delivery construct: recombinant homodimeric fusion protein: N-terminal methionine, cholix386 domain, polyGlySer spacer, recombinant human IL-10 (protein)
chain: MVEEALNIFDECRSPCSLTPEPGKPIQSKLSIPSDVVLDEGVLYYSMTINDEQNDIKDEDKGESIITIGEFATVRATRHYVNQDAPFGVIHLDITTENGTKTYSYNRKEGEFAINWLVPIGEDSPASIKISVDELDQQRNIIEVPKLYSIDLDNQTLEQWKTQGNVSFSVTRPEHNIAISWPSVSYKAAQKEGSRHKRWAHWHTGLALCWLVPMDAIYNYITQQNCTLGDNWFGGSYETVAGTPKVITVKQGIEQKPVEQRIHFSKGNAMSALAAHRVCGVPLETLARSRKPRDLTDDLSCAYQAQNIVSLFVATRILFSHLDSVFTLNLDEQEPEVAERLSDLRRINENNPGMVTQVLTVARQIYNDYVTHHPGLTPEQTSAGAQAGGGGSGGGGSGGGGSPGQGTQSENSCTHFPGNLPNMLRDLRDAFSRVKTFFQMKDQLDNLLLKESLLEDFKGYLGCQALSEMIQFYLEEVMPQAENQDPDIKAHVNSLGENLKTLRLRLRRCHRFLPCENKSKAVEQVKNAFNKLQEKGIYKAMSEFDIFINYIEAYMTMKIRN
modifications: homodimer
IL-1Ra concentration in colonic tissue ([1]; 1, 3, 10 mg): not further augmented
total IL-10 in colonic tissue ([1]; 1, 3, 10 mg): dose-dependent increase in total IL-10
colonic MMP1, MMP3, MMP19 ([1]; 8 h): also upregulated
colonic TIMP1, tissue repair and anti-microbial genes ([1]; 8 h): also increased
colonic anti-inflammatory genes (CD163, miR24-2, NOX1 ...) ([1]; 8 h): upregulated a number of anti-inflammatory genes
colonic pro-inflammatory genes (MHCII, PLA2G2D, CCL20, CCL13) ([1]; 8 h): decreased a number of pro-inflammatory genes
colonic expression of CYP1A1 ([1]; 8 h, 12-hour fast prior to treatment): downregulated
colonic tissue pSTAT3/STAT3 ([1]; all doses tested): Higher ratios of colonic tissue pSTAT3/STAT3
induction of pro-inflammatory cytokines in colonic tissue ([1]; cynomolgus monkey, in vivo): not observed
time of peak total IL-10 in colonic tissue ([1]; first sampling time point): 15 min
plasma IFNγ, IL-1β, IL-2, IL-8, IL-6 ([2]; 1, 4, 20.5, 82 mg oral capsules): not associated with any consistent trends
plasma TNFα ([2]; all samples): below the limit of detection
IL-1Ra induction at high doses ([3]; 60 and 120 mg): loss of immunomodulatory activity
drug in blood ([3]; all doses (1-120 mg)): no drug was detected in the blood
adverse events in 24 active subjects ([3]; all mild, self-limiting): 2
IL-1Ra expression ([3]; single dose): able to induce IL-1Ra expression
safety and tolerability ([3]; single oral doses 1-120 mg): safe and well tolerated
suppression of induction of IL-4 (trend) [4]: 62%
suppression of induction of IL-6 (trend) [4]: 61%
suppression of induction of IL-12p70 (trend) [4]: 65%
suppression of induction of KC/GRO (trend) [4]: 51%
plasma expression of IL-10 and IL-2 relative to Vehicle ([4]; p<0.05): significantly reduced
Aggregate % [5, 8]: 36%
Monomer % [5, 8]: 22%
Aggregate % [5, 9]: 57%
Monomer % [5, 9]: 11%
Dimer Purity after Capto Q Chromatography [5, 10]: 84%
Dimer Purity [5, 10]: 84%
Dimer Purity after Capto Q Chromatography [5, 11]: 74%
Dimer Purity [5, 11]: 74%
Aggregate % [5, 12]: 68%
Monomer % [5, 12]: 8%
Dimer Purity ([5]; Sulfitolysis of SIB (average of 3)): 82-83%
plasma cytokines, MSD 10-plex, vs Vehicle [6]: no significant differences
solution stability after reconstitution in PBS [7]: significant degradation
